Data as given in the nanobody polyreactivity screen of Harvey et al. (2022).

Test: yeast display, Sf9 membrane polyspecificity reagent, FACS + sequencing; frameworks hold sequencing errors
Summary of the method: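 Synthetic nanobody libraries on Saccharomyces cerevisiae BJ5465 were galactose-induced for 36–48 hours, stained 1 hour at 4 °C with 10% biotinylated, detergent-solubilized Sf9 membrane reagent and enriched on streptavidin microbeads. FACS then separated cells into low and high (top ~1%) gates by anti-HA (expression) and streptavidin (reagent binding) fluorescence. Genes were colony-PCR amplified, MiSeq 2 × 250 sequenced and CDR-length filtered. A clone's polyreactivity label is that of its gate of origin.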

Sequence	polyreactivity (PSR sort gate)
QVQLVESGGGLVQAGGILSLSCAASGIIFYTYAMGWYRQAPGKERELVATISWDVDSTNYADSVKGRFTISRDNAKNTVYLQMNSLKPEDTAVYYCAVDYTFDSYWYWVDYYEYGYWGQGTQVTVTS	high polyreactivity
QVQLVESGGGLVQAGGILSLSCAASGLIFRKNAKGWYRQAPGKEMELVAAISGRGGITYYADSVKGRFTISRDNAKNTVYLQMNSLKPEDTAVYYCATRFYRPRDGLYDYWGHGTQVTVSS	high polyreactivity
QVQLVESGGGLVQAGGILSLSCAASGNIFAYNAMGWYRQAPGKERELVAAITDSGGNTFYADSVKGRFTISRDNAKNTVYLQMISVKPEDTAVYYCAADPDGWGFVYPRYVSWGQGTQVTVSS	low polyreactivity
QVQLVESGGGLVQAGGNLRLSCAASGFKFTSYAMGCYIQAPGKERELVAAISTSGDRTYYADSVKGRFTISRDNAKNTVYLQMNSLQPEDTAVYYSAVVRPRSVVRYDSWGQGTQVTVSS	high polyreactivity
QVQLVESGGGLVQAGGRHRLSCAASGFIFHVYAMGWYRQAPGKERELVAAISSGGSTYYADSVKGRFTISRDNAKNTVYLQMNSLKPEDTAVYYCNGARSRYRYRYDYWGQGTQVTVSS	high polyreactivity
QVQLVESGGGLVQAGGRLLLSCAASGSTFTRNAMGWYRPAPGKERELVAAISSSGSRTYYADSVKGRFTISRDNAKNTVYLQMNSLIPADTAVYYCNKTKHSYLYTDDDYWGQGTQVTVSS	high polyreactivity
QVQLVESGGGLVQAGGRLRISCAASGFTFEYNDMGWYRQAPGKERELVASISYDSDSTYYADSVKGRFTISRDNAKNTVYLQMNSLKPEDTAVYYCNAGSSYHEYGYWGQGTQVTVSS	high polyreactivity
QVQLVESGGGLVQAGGRLRISCAASGRIFTYNTLGWSRQEPGKERELVAAIRTGGSTNYADSVKGRFTISRDNAKITVNLQMNSLKPEDTAVSYCNTVRHSTSDYWYDFWGQGTQVTLSS	low polyreactivity
QVQLVESGGGLVQAGGRLRISCAASGRTFGHYAMGWYRQAPGKQRELVAAINRSGGITYYADSVRGRFTISRDNAKNTVYLQMNSLKPEDPAVDYCAAASPGRYDYWGQGTQETVSS	high polyreactivity
QVQLVESGGGLVQAGGRLRISCAASGSIFGTYTMGWYRLAPGEERELVAAITSDGRTYYADSVKGRFTISRDNAKNTVYLQMNSLKPEDTAVYYCAADSSGYYWFNYWGQGTQVTVSS	low polyreactivity
QVQLVESGGGLVQAGGRLRLICAASGRIFYSYAMGWYRQAPGKERELVAAISFSVGSTYYADSVKGRFTISRDNAKNTVYLQMNSLKPEDTAVYYCAASLGFPGYEYWGQGTQVTVSS	low polyreactivity
QVQLVESGGGLVQAGGRLRLICDASGRIFYRYAIGWYRQAPGKERELVAVITSSGGRTYYADSVKGRFTISRDTAKNTVYLPMNSLKPEDTAVYYCTAYVRRIVRSYYWGQGTQVTVSS	high polyreactivity
QVQLVESGGGLVQAGGRLRLISAASGSIFYYNAMGWYRQAPGKERELVAAISWSADSTYYADSVKGRFTISRDNAKNTVYLQMNSLKPEDSAAYYCNTDLVPWTEYWYDYWGQGTQVTVSS	low polyreactivity
QVQLVESGGGLVQAGGRLRLRCAASGFTFRYNAMGCNRQAPGKERELVATISSGASTYYADSVKGRFTISRDNAKNTVYFQMNSLIPVDSAVYYCAADDLGLWFYSGVDDYYYCGQGTQVTVSS	low polyreactivity
QVQLVESGGGLVQAGGRLRLRCAASGSTFSYYAMGWYRQAPGKERELVADISSGGTTNYADSVKGRFTISRDNAKNTVYLQMNSLKPEDTSVYYCNRRYSYYDGFDYWGQGTQVTVSS	low polyreactivity
QVQLVESGGGLVQAGGRLRLSCAAAGSTFDGNAMGWYRQAPGKERELVADIDSIGGSTYYADSVKGRFTISRDNAKNTVYLQMNSLKPEDTAVYYCADRRFDTALVLYDYWGQGTQVTVSS	low polyreactivity
QVQLVESGGGLVQAGGRLRLSCAASAFIFVTYAMGCYRQAPGKERELVAAITNSGGTTYYADSVKGRFTISRDNAKNTVYLQMNSLKPEDTAVYYCNTEDFFNVPEMDSWGQGTQVTVSS	low polyreactivity
QVQLVESGGGLVQAGGRLRLSCAASGFIFKGYAKGWYRQAPGKERELVAAISYSGGNTYYADSVKGRFTISRDNAKNTVYLQMNSLKPEDTAVYYCDVRKRKVLGMYYWGQGTQVTVSS	high polyreactivity
QVQLVESGGGLVQAGGRLRLSCAASGFIFPHYAMGWYRQAPGKDRELVAAITWSGSSTYYADSVKGRFTISRDNAKNTVYLQMNSLKPEDTAVYYCYADYRLWPTSRYRYGYWGQGTQVTVTS	high polyreactivity
QVQLVESGGGLVQAGGRLRLSCAASGFIFSYYAMAWYIQAPGKERELVAAISSAGSTYYADSVKGRFTISRDNAKNTVYLQMNSLKPEDTAVYYCAAAIWYIKLYFVRRTEHGYWGQGTQVTVSS	low polyreactivity
QVQLVESGGGLVQAGGRLRLSCAASGFILATNAMGWYRQAPGKERELVAAISYSGGSTNYADSVKGRFTISRDNAKNTVYLQMNSLKPEDTAVYYCNAGGTVIWAWYGPVYSWGQGTQVTVSS	low polyreactivity
QVQLVESGGGLVQAGGRLRLSCAASGFTFAYYAMGWYRQAPGKERELVAAIRWSGTRTYYADSVKGRFTISRDHAKNTVYLQMNSLKPEDTAVYYCAKGIWYGTSGYYYWGQGTQVTVSS	high polyreactivity

Sequence	polyreactivity (PSR sort gate)
QVQLVESGGGLVQAGGRLRLSCAASGFTFLGSAMGWYRQAPGKERELVAAISSSGGSTYYADSVKGRFTISRDNAKNTVYLQMNSLKPEDTAVYYCAAYVAVPPSDYDYWGQGTQVTVSS	high polyreactivity
QVQLVESGGGLVQAGGRLRLSCAASGFTFSVYPMGWYIQAPGKERELVAAISWSGGSTYYADSVKGRFTISRDNAKNTVYVQMNSLKPEDTAVYYCNAYFSYKYRYPEDYWGQGTQVTVSS	high polyreactivity
QVQLVESGGGLVQAGGRLRLSCAASGGIFVSYAMGWYRQSPGKEREMVAAITSGGGTSYADSVKGRFTISRDNAKNTVYLQMNSLKPEDTEVYYCAARFMWSVFGRKGGYWGQGTQVTVSS	low polyreactivity
QVQLVESGGGLVQAGGRLRLSCAASGGLLDIYVMGWYRQAPGKERELVAAITTRGGSTFYADSVKGRFTISRDNAKNTVYLQMNSLIPEDTAVYYCNKRLLVSRSSAQAYGYWGQGTQVTVSS	high polyreactivity
QVQLVESGGGLVQAGGRLRLSCAASGGTFSKNAIGWYRQAPGKEREFVAAISSTGGDTTYYADSVKGRFTISRDNAKNTVYLQMNSVKPEDTAFYYCNSDYIFWPWYDYWGQGTQVTVSS	low polyreactivity
QVQLVESGGGLVQAGGRLRLSCAASGGWYRQAPGKERELVAAISWRDSSTYYADSVKGRFTISRDNAKNTVYLQMNSLKPEDTAVYYCAVRAYPWPEYYYWGQGTQVTVSS	low polyreactivity
QVQLVESGGGLVQAGGRLRLSCAASGIIFSYYAMGWYRQAPGKERELVAAISWGGGSTYYADSVKGRFTISRDYAKNTVYLQMNSLKPEDTAVYYCAADYFDFFTGYEMGYWGQGTKVTVSS	high polyreactivity
QVQLVESGGGLVQAGGRLRLSCAASGIIFYGYAMGWYRQAPGKERELVAAITSYDGSTYYADSVKGRFTISRDNEKNTVYLQMNILKPEDTAFYYCAADYSTYEGWYWFDYWGQGTQVTVSS	high polyreactivity
QVQLVESGGGLVQAGGRLRLSCAASGIILGRYAMGWDRQAPGKERELVAAISIRGTRTYYADSVKGRFTISRDNAKNTVYLQLNSLKPEDTAVSYCAAKTVLWGQGTQVTVSS	high polyreactivity
QVQLVESGGGLVQAGGRLRLSCAASGIISSAYAIGWYRQAPGKERELVAAISSGGSTKYADSVKGRFTISRDNAKNTVYLQMNSLKPEDTAVYYCAARTRYPYKVFGYWGQGTQVTVSS	high polyreactivity
QVQLVESGGGLVQAGGRLRLSCAASGITFTVFAMGWYRQAPGKERELVAAISQSGGSTYYADSVKGRFTISRDNAKNTVYLQMNILNPEDTAVYYCAKTLPSNGHYDYWGQGTQVTVSS	low polyreactivity
QVQLVESGGGLVQAGGRLRLSCAASGITIYGYAMGWYRQAPGKEREFVAAISYSGASTYYADSVKGRFTISRDNAKNTVYLQMNSLKPEDTAVYYCAARVRRSLYGYWGIGTQVTVSS	high polyreactivity
QVQLVESGGGLVQAGGRLRLSCAASGLTFKRYAMGWYRQAPGKERELVASITGNGGSTYYADSVKGRFTISRDNAKNTVYLQINSLKPEDTAVYYCNARRYVRTSQQPLYFYWGQGTQVTVSS	high polyreactivity
QVQLVESGGGLVQAGGRLRLSCAASGLTFYLSAMGWYRQAPGKERELVAGISRSGGSTYYADAVKGRFTISRDYAKNTVYLLMNSLKPEDTAVSYCNKASAVFEFYYWGQGTQVTVSS	high polyreactivity
QVQLVESGGGLVQAGGRLRLSCAASGRIFAANVMGSYRQAPGKERELVAAISWNGGSTYYADSEKGRFTISRDNAKKSVYLQLNSLKPEDTAVYYCAVRGSYRVWYDYWGQGTQVTVSS	high polyreactivity
QVQLVESGGGLVQAGGRLRLSCAASGRIFPDNTMGWYRQAPGKERELVAVITYSGGSTYYADSVKGRFTISRDNAKNTVYLQMNSLKPEDTAVYYCAARDYYIWFAEVDYWGQGTQVTVSS	low polyreactivity
QVQLVESGGGLVQAGGRLRLSCAASGRIFSAYAMGWYRQAPGKERELVAAISRSGGRTYYADSVKGRFTISRDNAKNTVYLQMNSLKPEDTAVYYCAAARFAIVRGDYWGQGTQVTVSS	high polyreactivity
QVQLVESGGGLVQAGGRLRLSCAASGRIFSKNAMGWYRQAPGKERELVAVISARGGNTYYADSVKGRFTISRDNAKNTVYLQMNSLKPEDTAVYYCNTPRPYEITTREYYYWGQGTQVTVSS	high polyreactivity
QVQLVESGGGLVQAGGRLRLSCAASGRIFVAYVMGWYRQAPGKERELVAAITRGVRTYYADSVKGRFTISRDNAKNTVYLQMNSLKPEDTAVYYCAARGISAFSQDYEYYYWGQGTQVTVSS	high polyreactivity
QVQLVESGGGLVQAGGRLRLSCAASGRIFVRYVMGWYRQAPGKERELVAAISGGGSSTYYADSVKGRFTISRDNAKNTVYLQMNSLKPVDTAVYYCAAKGTRQPRFDFWGQGTQVTVSS	high polyreactivity
QVQLVESGGGLVQAGGRLRLSCAASGRIFVVYAMGWSRQAPGKERELVAAISKRGGSTYYADSVKGRFTISRDNAKYTVYLQMNTLKPEDTAVYYCAAGRYKSDLMDYWGQGTQVTVSS	high polyreactivity
